T1: NF-κB2/p100, endogenous (human, UniProt Q00653 1-900)
T1 construct: mature
T1 sequence (looked up): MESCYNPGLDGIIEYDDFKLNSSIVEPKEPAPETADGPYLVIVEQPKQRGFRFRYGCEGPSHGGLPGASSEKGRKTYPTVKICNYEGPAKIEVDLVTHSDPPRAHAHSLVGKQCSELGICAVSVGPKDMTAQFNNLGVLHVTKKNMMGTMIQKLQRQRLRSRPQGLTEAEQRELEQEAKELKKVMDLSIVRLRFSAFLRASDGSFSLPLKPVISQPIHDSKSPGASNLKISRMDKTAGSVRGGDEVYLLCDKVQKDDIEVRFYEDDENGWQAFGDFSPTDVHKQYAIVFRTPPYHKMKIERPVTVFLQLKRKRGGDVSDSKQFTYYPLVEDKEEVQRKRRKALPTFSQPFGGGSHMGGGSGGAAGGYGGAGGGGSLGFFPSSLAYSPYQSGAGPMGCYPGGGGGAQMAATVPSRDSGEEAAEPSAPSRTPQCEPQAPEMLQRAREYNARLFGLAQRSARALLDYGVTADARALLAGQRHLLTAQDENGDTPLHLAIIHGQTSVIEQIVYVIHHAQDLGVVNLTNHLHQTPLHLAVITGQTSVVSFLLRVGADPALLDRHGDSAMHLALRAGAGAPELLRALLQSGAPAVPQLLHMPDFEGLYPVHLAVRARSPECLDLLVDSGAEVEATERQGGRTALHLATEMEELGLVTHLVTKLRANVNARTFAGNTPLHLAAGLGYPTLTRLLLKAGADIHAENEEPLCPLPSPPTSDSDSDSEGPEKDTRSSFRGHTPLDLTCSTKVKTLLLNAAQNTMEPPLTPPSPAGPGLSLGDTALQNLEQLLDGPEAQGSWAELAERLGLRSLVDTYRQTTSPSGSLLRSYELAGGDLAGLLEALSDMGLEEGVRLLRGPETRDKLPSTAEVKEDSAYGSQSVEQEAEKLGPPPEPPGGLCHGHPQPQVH

T2: p55 TNF receptor, endogenous in Ramos cells (human, UniProt P19438 30-455)
T2 construct: whole, on cells; TNF-receptor complex precipitated as described by Zhang et al., 2000
T2 sequence (looked up): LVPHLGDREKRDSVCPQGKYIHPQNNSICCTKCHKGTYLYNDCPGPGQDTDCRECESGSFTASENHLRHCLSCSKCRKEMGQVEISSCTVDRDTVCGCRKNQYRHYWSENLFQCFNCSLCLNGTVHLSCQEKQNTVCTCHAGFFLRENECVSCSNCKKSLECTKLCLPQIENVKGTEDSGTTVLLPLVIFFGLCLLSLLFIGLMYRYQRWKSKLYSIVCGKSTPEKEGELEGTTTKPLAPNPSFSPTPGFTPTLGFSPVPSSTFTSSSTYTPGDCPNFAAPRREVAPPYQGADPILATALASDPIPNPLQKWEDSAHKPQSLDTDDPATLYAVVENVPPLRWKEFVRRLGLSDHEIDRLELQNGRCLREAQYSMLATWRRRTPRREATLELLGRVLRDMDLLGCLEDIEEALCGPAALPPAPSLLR

B1: C-terminal part of SIVA (amino acids 123-175 in SIVA1 or 58-110 in SIVA2), yeast two-hybrid clone (other)
chain: GKAVCGQCERALCGQCVRTCWGCGSVACTLCGLVDCSDMYEKVLCTSCAMFET
notes: Clone from a human bone marrow two-hybrid library; also called SIVA clone; C-terminal SIVA fragment; not shown: Gal4 fusion partner of the library clone / pGADT7 or pGBKT7 vector; not specified
B2: NF-κB2/p52, endogenous (other, human, UniProt Q00653 1-454, looked up)
chain: MESCYNPGLDGIIEYDDFKLNSSIVEPKEPAPETADGPYLVIVEQPKQRGFRFRYGCEGPSHGGLPGASSEKGRKTYPTVKICNYEGPAKIEVDLVTHSDPPRAHAHSLVGKQCSELGICAVSVGPKDMTAQFNNLGVLHVTKKNMMGTMIQKLQRQRLRSRPQGLTEAEQRELEQEAKELKKVMDLSIVRLRFSAFLRASDGSFSLPLKPVISQPIHDSKSPGASNLKISRMDKTAGSVRGGDEVYLLCDKVQKDDIEVRFYEDDENGWQAFGDFSPTDVHKQYAIVFRTPPYHKMKIERPVTVFLQLKRKRGGDVSDSKQFTYYPLVEDKEEVQRKRRKALPTFSQPFGGGSHMGGGSGGAAGGYGGAGGGGSLGFFPSSLAYSPYQSGAGPMGCYPGGGGGAQMAATVPSRDSGEEAAEPSAPSRTPQCEPQAPEMLQRAREYNARLFGLA
B3: RelB, endogenous (other, human, UniProt Q01201 1-579, looked up)
chain: MLRSGPASGPSVPTGRAMPSRRVARPPAAPELGALGSPDLSSLSLAVSRSTDELEIIDEYIKENGFGLDGGQPGPGEGLPRLVSRGAASLSTVTLGPVAPPATPPPWGCPLGRLVSPAPGPGPQPHLVITEQPKQRGMRFRYECEGRSAGSILGESSTEASKTLPAIELRDCGGLREVEVTACLVWKDWPHRVHPHSLVGKDCTDGICRVRLRPHVSPRHSFNNLGIQCVRKKEIEAAIERKIQLGIDPYNAGSLKNHQEVDMNVVRICFQASYRDQQGQMRRMDPVLSEPVYDKKSTNTSELRICRINKESGPCTGGEELYLLCDKVQKEDISVVFSRASWEGRADFSQADVHRQIAIVFKTPPYEDLEIVEPVTVNVFLQRLTDGVCSEPLPFTYLPRDHDSYGVDKKRKRGMPDVLGELNSSDPHGIESKRRKKKPAILDHFLPNHGSGPFLPPSALLPDPDFFSGTVSLPGLEPPGGPDLLDDGFAYDPTAPTLFTMLDLLPPAPPHASAVVCSGGAGAVVGETPGPEPLTLDSYQAPGPGDGGTASLVGSNMFPNHYREAAFGGGLLSPGPEAT
notes: mature
B4: IκBα, endogenous (other, human, UniProt P25963 1-317, looked up)
chain: MFQAAERPQEWAMEGPRDGLKKERLLDDRHDSGLDSMKDEEYEQMVKELQEIRLEPQEVPRGSEPWKQQLTEDGDSFLHLAIIHEEKALTMEVIRQVKGDLAFLNFQNNLQQTPLHLAVITNQPEIAEALLGAGCDPELRDFRGNTPLHLACEQGCLASVGVLTQSCTTPHLHSILKATNYNGHTCLHLASIHGYLGIVELLVSLGADVNAQEPCNGRTALHLAVDLQNPDLVSLLLKCGADVNRVTYQGYSPYQLTWGRPSTRIQQQLGQLTLENLQMLPESEDEESYDTESEFTEFTEDELPYDDCVFGGQRLTL
notes: mature

What was measured:
[1] = target: T3, NIK 624-947 (C-terminal part of NIK), yeast two-hybrid construct (human, UniProt Q99558 624-947); assay: yeast two-hybrid, β-galactosidase colour assay in SFY526
T3 construct: Yeast two-hybrid construct used in the β-galactosidase assay in SFY526 yeast; also called C-terminally mutant (NIK 624-947); the C-terminal portion of NIK; not shown: Gal4 fusion partner from pGBKT7 or pGADT7
Method: FIG. 1a illustrates yeast two-hybrid binding assays of NIK to SIVA. The binding of NIK and its C-terminally mutant (NIK 624-947) to the C-terminal part of SIVA (amino acids 123-175 in SIVA1 or 58-110 in SIVA2) or TRAF2, was assessed using transformed SFY526 yeast. The development of a strong color reaction within 1 hour and 3 hours is indicted as ‘++’ and ‘+’, respectively; ‘−’ indicates no color development within 24 h.
A BamHI/XhoI digested NIK insert from the pcNIK vector was subcloned into BamHI/SalI sites of the Gal4 DNA-binding domain vector pGBKT7 (Clontech). A pre-transformed human bone marrow library (HL4053AH, Clontech) was subjected to two-hybrid screening using pGBKT7-NIK as the bait, according to the manufacturer's instructions (Yeast protocol handbook, Clontech—www.clontech.com) Positive clones were identified by quadruple selection and β-galactosidase activity assay. Binding of the SIVA clone to NIK and NIK624-947 was reconfirmed and binding of NIK to TRAF2 was assessed-by a β-galactosidase expression assay using the yeast SFY526 reporter strain (Clontech) and the pGBKT7 and pGADT7 vectors.

[2] = target: B3; assay: anti-RelB immunoprecipitation from nuclear extracts of Ramos cells, western blot
Method: (§1) FIG. 3g is an immunoprecipitation analysis with RelB of various NF-κB proteins from nuclear extracts of the Ramos cells, 15 minutes and 4 hours after the application of TNF or CD70 to the cells. Levels of p100, NS and p52 were detected by western blot analysis.
(§2) For immunoprecipitation of the NF-κB proteins, nuclear extracts from 10-20×10⁶ cells were diluted to achieve the following composition: 0.5% NP-40, 10 mM HEPES pH 7.9, 150 mM NaCl, 1 mM EDTA, 1 mM EGTA, 1 mM dithiothreitol (DTT), 1 mM PMSF, and 1× complete protease inhibitor cocktail. Anti-RelB antibody preadsorbed to protein-A-Sepharose beads (Amersham Biosciences) was incubated with precleared nuclear lysates for 2 hours at 4° C. The immunoprecipitates were analyzed by SDS-PAGE using 4-12% Bis-Tris NuPAGE gels (Invitrogen), and the gels were subjected to western blotting as described above.

[3] = target: T1, NF-κB2/p100, endogenous; assay: as above
Method: as §1, §2

[4] = target: T2, p55 TNF receptor, endogenous in Ramos …; assay: western blot of the p55 TNF receptor complex from Ramos cells (FIG. 6a)
Method: Transfections, immunoblotting and immunoprecipitations were performed as described in Example 2 and Example 3 of the Examples section. For immunoprecipitation of the CD70/CD27 ligand-receptor complexes from resting PBMC and Ramos cells, cell lysates were prepared as described for the kinase tests aforementioned and incubated for 4 hours at 4° C. with 25 μl of 50% M2-FLAG agarose beads per ml of lysate. The TNF-receptor complex was precipitated as described (Zhang et al., 2000). The signalosome from cell lysates was immunoprecipitated using a 1:1 mixture of two different antibodies against IKK1 (M-280 and H-744, Santa Cruz). Immunoprecipitation was allowed to continue for 2 hours at 4° C., using 10 μg of anti-IKKα antibodies adsorbed to 25 μl of 50% protein-A-Sepharose beads per ml of lysate.

T3 sequence (Q99558 624-947): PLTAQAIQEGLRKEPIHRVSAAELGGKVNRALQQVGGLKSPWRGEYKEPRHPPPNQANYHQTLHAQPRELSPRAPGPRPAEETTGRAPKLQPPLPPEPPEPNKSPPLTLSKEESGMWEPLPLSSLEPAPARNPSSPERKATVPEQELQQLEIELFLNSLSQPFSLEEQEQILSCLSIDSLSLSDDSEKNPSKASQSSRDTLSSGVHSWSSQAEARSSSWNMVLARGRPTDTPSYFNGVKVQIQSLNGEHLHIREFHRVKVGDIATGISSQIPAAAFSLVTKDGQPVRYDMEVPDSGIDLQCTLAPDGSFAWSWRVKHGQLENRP

Binder: B1
binding result [1]: binds

Binder: B2
binding result [2]: binds

Binder: B3
binding result [3]: binds

Binder: B4
binding result [4]: binds
